Laboratory results published in publication PMC11922746, “SPO11 dimers are sufficient to catalyse DNA double-strand breaks in vitro” (Nature, 2024).
Values belong to the binder of their own block, whether it stands above or below them.

What was measured:
[1] = molecular target: T1, MBP-SPO11;TOP6BL (Mus musculus;Mus musculus, UniProt Q9WTK8;J3QMY9 1-396;1-579, |); assay: EMSA; 5 mM EDTA, 0.1 nM DNA; EMSA: 25 mM Tris-HCl pH 7.5, 7.5% glycerol, 50 mM NaCl, 2 mM DTT, 5 mM EDTA, 1 mg/ml BSA, 37 C, 30 min; 0.1 nM labelled hairpin or 100 ng plasmid in 20 µl; details: protein: recombinant;recombinant; tags: MBP;His-Flag; copies: 1;1; label: 5' 32P; hairpin, 2-nt 5' overhang
T1 sequence 1: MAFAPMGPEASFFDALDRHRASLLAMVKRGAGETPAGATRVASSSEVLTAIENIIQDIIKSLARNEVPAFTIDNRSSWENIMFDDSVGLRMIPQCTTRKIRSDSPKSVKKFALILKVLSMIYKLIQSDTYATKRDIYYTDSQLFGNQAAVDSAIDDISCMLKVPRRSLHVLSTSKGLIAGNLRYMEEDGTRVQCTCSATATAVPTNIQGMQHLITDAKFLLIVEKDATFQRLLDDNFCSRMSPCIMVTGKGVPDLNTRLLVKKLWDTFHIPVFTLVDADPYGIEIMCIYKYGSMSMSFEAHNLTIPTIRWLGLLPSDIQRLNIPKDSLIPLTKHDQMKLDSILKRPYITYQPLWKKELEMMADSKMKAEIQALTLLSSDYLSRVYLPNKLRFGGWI
T1 sequence 2: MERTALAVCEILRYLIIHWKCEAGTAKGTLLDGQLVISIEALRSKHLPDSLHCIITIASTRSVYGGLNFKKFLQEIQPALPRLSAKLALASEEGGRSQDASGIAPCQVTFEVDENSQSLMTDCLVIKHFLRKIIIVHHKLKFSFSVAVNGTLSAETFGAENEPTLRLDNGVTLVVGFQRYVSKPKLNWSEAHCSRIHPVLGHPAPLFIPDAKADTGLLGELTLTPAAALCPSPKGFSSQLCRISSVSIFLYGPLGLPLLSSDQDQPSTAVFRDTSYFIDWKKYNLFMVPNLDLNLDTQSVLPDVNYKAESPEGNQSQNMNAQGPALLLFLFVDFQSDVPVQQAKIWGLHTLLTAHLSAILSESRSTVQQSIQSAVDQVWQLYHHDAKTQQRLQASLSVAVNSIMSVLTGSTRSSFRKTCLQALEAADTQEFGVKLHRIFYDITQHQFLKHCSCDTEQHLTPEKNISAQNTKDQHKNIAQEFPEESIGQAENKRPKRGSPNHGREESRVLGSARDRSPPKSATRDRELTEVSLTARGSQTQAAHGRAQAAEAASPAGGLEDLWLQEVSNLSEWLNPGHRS

[2] = molecular target: T2, MBP-tagged Mus musculus SPO11 (Mus musculus, UniProt Q9WTK8 1-396); assay: SEC-MALS; co-expressed and co-purified MBP–SPO11 and His–Flag TOP6BL complex (Ni-NTA, amylose, Superdex 200); Superdex 200 increase 10/300 GL; 25 mM HEPES-NaOH pH 7.5, 500 mM NaCl, 10% glycerol, 5 mM EDTA, 2 mM DTT; details: both partners purified
T2 construct: SPO11, Mus musculus; expected molecular mass of MBP–SPO11 87.4 kDa; active-site tyrosines Y137 and Y138; also called MBP–SPO11; mouse SPO11; source: baculovirus-infected Sf9 insect cells, purified (amylose, Superdex 200, cation exchange); for the complex co-expressed with TOP6BL and purified (Ni-NTA, amylose, Superdex 200); not shown: MBP, N-terminal, kept
T2 sequence (looked up): T1 sequence 1

Binder: TAGCAATGTAATCGTCTATGACGTTAACGTCATAGACGATTACATTGC (structured_DNA) [cb957 hairpin, 25 bp, 2-nt 5' overhang]
binding result [1]: binds

stoichiometry N [2]: 1
B1: His–Flag-tagged Mus musculus TOP6BL (natural protein, UniProt J3QMY9 1-579, looked up)
chain: T1 sequence 2
notes: TOP6BL (topo VIB-like subunit), Mus musculus; also called His–mTOP6BL–Flag; mTOP6BL; not shown: His, N-terminal, kept; Flag, C-terminal, kept
